Laboratory results as given in PMC7933101 (Proteins, 2020).
Where “and” joins values, the source holds several entries; their conditions need not be identical. Equal values may be shown once.

B1: Granulin-5 (GRN-5) (natural protein, UniProt P28799 364-417, looked up)
chain: VPCDNVSSCPSSDTCCQLTSGEWGCCPIPEAVCCSDHQHCCPQGYTCVAEGQCQ
B2: Granulin-3 (GRN-3) (natural protein, UniProt P28799 206-261, looked up)
chain: VMCPDARSRCPDGSTCCELPSGKWGCCPMPNATCCSDHLHCCPQDTVCDLIQSKCL

Assays:
[1] = target: the molecule itself; assay: non-reducing PAGE
[2] = target: the molecule itself; assay: PAGE under denaturing, non-reducing conditions

Row | Protein | binding result [1] | stoichiometry N [1] | stoichiometry N [2]
1 | B1 | binds | – | –
2 | B2 | – | 2 and 3 | ≤ 4
